{
  "source": "patent US20220251148A1",
  "data": [
    {"target": "purified MHC (MHC II molecules purified by affinity chromatography)", "experiment": "competition with a radiolabelled known MHC binding peptide for purified MHC", "units": {"IC50": "µM"}, "values": [
      {"binder": "KLPYPQGRLPGPQPQ", "note": "[P2g (SEQ ID NO: 43), modified alpha gliadin 15-mer peptide]", "IC50": 3.75},
      {"binder": "PYPHPWLRGPQPQPF", "note": "[P3f (SEQ ID NO: 48), modified alpha gliadin 15-mer peptide]", "IC50": 0.879},
      {"binder": "PYSQPESPYMQPQPF", "note": "[P3d (SEQ ID NO: 47), modified alpha gliadin 15-mer peptide]", "IC50": 1.99},
      {"binder": "LQLQPFDQPRLPWPQ", "note": "[P1f (SEQ ID NO: 37), modified alpha gliadin 15-mer peptide]", "IC50": 5.44},
      {"binder": "LQLQPFWQPKLPGPQ", "note": "[P1g (SEQ ID NO: 38), modified alpha gliadin 15-mer peptide]", "IC50": 11.2},
      {"binder": "PYPHPRLPYTQPQPF", "note": "[P3c (SEQ ID NO: 46), modified alpha gliadin 15-mer peptide]", "IC50": 2.99}
    ]}
  ]
}
